These results are taken from patent JP2020117470A (dated 2020).

For the assay, the target named is T1, Streptococcus pyogenesのStreptolysin O(SLO) (Streptococcus pyogenes, UniProt P0C0I3 34-571).
T1 sequence: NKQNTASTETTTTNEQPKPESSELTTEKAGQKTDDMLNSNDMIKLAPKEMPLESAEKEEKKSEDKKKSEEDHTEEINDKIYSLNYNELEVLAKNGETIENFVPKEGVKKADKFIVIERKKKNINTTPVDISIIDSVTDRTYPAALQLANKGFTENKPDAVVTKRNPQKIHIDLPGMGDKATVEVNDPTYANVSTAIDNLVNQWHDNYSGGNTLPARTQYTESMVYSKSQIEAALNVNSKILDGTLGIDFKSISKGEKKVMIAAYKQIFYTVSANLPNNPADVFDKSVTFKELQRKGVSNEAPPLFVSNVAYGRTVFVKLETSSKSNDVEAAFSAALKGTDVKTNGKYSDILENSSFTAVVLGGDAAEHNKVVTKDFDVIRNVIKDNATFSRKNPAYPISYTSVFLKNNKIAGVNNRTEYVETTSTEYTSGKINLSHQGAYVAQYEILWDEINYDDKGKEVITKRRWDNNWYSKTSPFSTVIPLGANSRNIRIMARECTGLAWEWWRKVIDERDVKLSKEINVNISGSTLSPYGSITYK
Briefly: ELISA, plate coated with 1 μg/mL SLO, anti-mouse IgG-HRP detection.

B1: 抗体HS2 (antibody, V domains shown)
V domain 1: VQLQESGPELVKPGASVKISCKASGYAFSSSWMNWVRQRPGQGLEWIGRIYPGDGDTNYNGKFKGKATLTADKSSNAAYMHLSSLTSVDSAVYFCARRNYGSGFLYYFDYWGQGTTLTV
V domain 2: QIVLSQFPAILSASPGEKVTMTCRASSSVSYMHWYQQKPGSSPKLWIYATSDLASGVPARFSGSGSGTSYSLTISRVEAEDAATYYCQQWSSNPPTFGGGTKL
As for B1, the binding result is on record as “no binding”.

B2: 抗体HS3 (antibody, V domains shown)
VH: EVQLQESGPDLVKPSQSLSLICTVTGYSITSGYNWHWIRQFPGNKLEWMAYIDYTGSTHYNPSLKSRISITRDTSKNHFFLQLNSVTTEDTATYYCARDYGNYEWSFDVWGAGTTVTVSS
VL: DIQMNQSPSSLSASLGDTITITCHASQNINVWLSWYQQKPGNIPKLLIYKASNLHTGVPSRFSGSGSGTGFTLTISSLQPEDIATYYCQQGQSYPLTFGAGTKL
Consider B2, for which the binding result is given as “no binding”.
